Results taken from US20190112385A1 (NBE THERAPEUTICS, published 2019).

Experiments:
[1] = molecular target: T1, StrepII-tagged Mesothelin (human mesothelin isoform 2, NP_037536, with C-terminal strepII-tag) (human, UniProt Q13421-1 296-606, limits assumed); assay: ELISA of 293T supernatant on coated Mesothelin, normalized to IgG titer and given relative to parental mAb MN
T1 construct: also called Mesothelin-strep; soluble antigen
Protocol: (§1) Antigen-binding analysis by ELISA was performed by coating of Nunc-Immuno MaxiSorp 96-well plates (Thermo Scientific, Waltham, USA) with antigen diluted in coating buffer (100 mM bicarbonate/carbonate buffer) over night at 4° C. For sandwich ELISA, plates were coated with 2 μg/ml AffiniPure F(ab′)2 fragment donkey anti-human IgG (Jackson Immunoresearch, West Grove, USA) diluted in coating buffer over night at 4° C. After coating, plates were washed twice with PBS/0.05% Tween-20 (PBS-T), blocked with PBS-T containing 3% bovine serum albumin (BSA) (Carl Roth, Karlsruhe, Germany) for 1 hour at 37° C. and washed again 5 times with PBS/T. L11 clone supernatants were pre-diluted 3-fold, while supernatants from 293T cells were pre-diluted 50-fold. Parental mAbs diluted to 0.5 μg/ml were used to generate standard curves. 3.5-fold serial dilutions of samples were added and plates were incubated for 1 hour at 37° C. After 5 washes with PBS/T, HRPO-conjugated F(ab)2 anti-human FC-gamma (Jackson Immunoresearch, West Grove, USA) was added at 10′000-fold dilution in PBS/T containing 1% BSA, and plates were incubated for 1 hour at 37° C. Finally, plates were washed 5 times with PBS/T and 50 μl of Sigmafast OPD Peroxidase substrate (Sigma-Aldrich, St. Louis, USA) were added. Reactions were stopped by adding 50 μl of 2M H₂SO₄. Absorption was measured at 490 nm. OD50 values of standards with known concentrations and samples determined by 4-point curve fitting models were used to calculate EC50.
(§2) FIG. 10B Deconvolution and validation of recovered sequences. All possible combinations of VH/VL pairs per clone along with the parental pair as a control were transiently transfected into 293T cells. Cell clones and supernatants were analysed for antigen-binding and IgG titer by ELISA as described in FIG. 4D. Ratios of antigen-binding/IgG titers were determined to obtain antigen binding values normalized to IgG content in supernatants (Meso-binding/IgG). Normalized binding is also shown in relation to parental mAb (binding % of parental).

[2] = molecular target: T1, StrepII-tagged Mesothelin (human …); assay: SPR (Biacore T200), mAb from 293T supernatant captured by anti-human Fc-gamma IgG, Mesothelin-strep 10 to 1.25 nM as analyte, 25 °C, 1:1 model
Protocol: (§3) Table 1. Affinities of parental mouse mAb MN and humanized versions thereof. To evaluate the binding strength (affinity) of the generated humanized monoclonal antibodies (mAbs), and to compare affinites with parental mAbs, surface plasmon resonance (SPR) measurements were conducted, a biophysical method to accurately determine affinity. SPR was performed using a Biacore T200 instrument (GE Healthcare, Buckinghamshire, UK) and data was evaluated using Biacore Evaluation T200 V2.0 software. To capture mAbs, goat a-human Fc-gamma-specific IgG (Jackson ImmunoResearch, #109-005-098) was covalently immobilized on a CMS chip (GE Healthcare, # BR-1005-30).
FIG. 10C Isoaffinity plot showing association (kₐ) and dissociation constants (kd) as determined by surface plasmon resonance (SPR). The same supernatants as described in (B) were used for the analysis. Diagonal lines represent equal affinities.

[3] = molecular target: T1, StrepII-tagged Mesothelin (human …); assay: SPR (Biacore T200), mAb captured by anti-human Fc-gamma IgG (ligand level 217.8 RU), Mesothelin-strep 10 to 1.25 nM as analyte, 25 °C, 1:1 model; Chi2 0.151 RU2
Protocol: as §3
(§4) Mesothelin-strep was diluted in running buffer using 2-fold serial dilutions ranging from 10 nM to 1.25 nM. Association was measured at a flow of 30 μl/min for 120 s, and dissociation was followed for 1000 s. All measurements were performed at 25° C. All curves were fitted using a 1:1 binding model with RI=0. Regeneration was done for 90 s using 100 mM H3PO4 at a flow of 30 μl/min.

[4] = molecular target: T1, StrepII-tagged Mesothelin (human …); assay: ELISA of 293T supernatant on coated Mesothelin, divided by the IgG titer from a sandwich ELISA
Protocol: as §1, §2

[5] = molecular target: T1, StrepII-tagged Mesothelin (human …); assay: SPR (Biacore T200), mAb captured by anti-human Fc-gamma IgG (ligand level 143.6 RU), Mesothelin-strep 10 to 1.25 nM as analyte, 25 °C, 1:1 model; Chi2 0.100 RU2
Protocol: as §3, §4

[6] = molecular target: T1, StrepII-tagged Mesothelin (human …); assay: SPR (Biacore T200), mAb captured by anti-human Fc-gamma IgG (ligand level 106.5 RU), Mesothelin-strep 10 to 1.25 nM as analyte, 25 °C, 1:1 model; Chi2 0.052 RU2
Protocol: as §3, §4

[7] = molecular target: T1, StrepII-tagged Mesothelin (human …); assay: SPR, Biacore T200, mAb captured by anti-human Fc, Mesothelin-strep as analyte
[8] = molecular target: T1, StrepII-tagged Mesothelin (human …); assay: SPR (Biacore T200), mAb captured by anti-human Fc-gamma IgG (ligand level 90.0 RU), Mesothelin-strep 10 to 1.25 nM as analyte, 25 °C, 1:1 model; Chi2 0.075 RU2
Protocol: as §3, §4

T1 sequence (Q13421 other isoform, or with tags, fused parts or gaps limits assumed): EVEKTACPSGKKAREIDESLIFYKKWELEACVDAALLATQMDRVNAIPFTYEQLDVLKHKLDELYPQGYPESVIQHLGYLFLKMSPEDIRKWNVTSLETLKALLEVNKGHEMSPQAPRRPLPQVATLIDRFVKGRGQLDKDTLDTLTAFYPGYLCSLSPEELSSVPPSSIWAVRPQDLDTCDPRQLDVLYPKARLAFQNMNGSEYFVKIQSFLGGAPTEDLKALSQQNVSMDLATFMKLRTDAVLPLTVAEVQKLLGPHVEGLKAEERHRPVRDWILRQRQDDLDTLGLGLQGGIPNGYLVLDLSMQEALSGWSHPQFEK

Row | binding (% of parental) [1] | Kd [2] | koff [2] | kon [2] | Kd [3] | Meso-binding/IgG [4] | Kd [5] | Kd [6] | Kd [7] | Kd [8] | Binder
1 | 84.9 % of parental | 0.176 nM | 0.000218 s⁻¹ | 1.24e+06 M⁻¹ s⁻¹ | 0.176 nM | 0.79 |  |  |  |  | huMN5-2 (antibody, V domains shown, No sheet says in words that huMN5a is huMN5-2) VH: QVQLQQSGAELVKPGASLKLSCKASGYTFTSYWMHWVRQAPGQGLEWIGAIHPNSDNTIYYQKFKSRFTITVDKSTSTAYMQLSSLTSEDTAVYYCAIIITPVVPKFDYWGQGTTVTVSS VL: DIVMTQSSSFMSASVGDRVSITCKASHDVGTSLAWYQQKPGQSPKLLIYWASTRQTGVPDRFSGSGSGTDFTLTISSVQSEDVATYFCQQYSSYPLTFGQGTKLEIK
2 | 82.4 % of parental | 0.114 nM | 0.000115 s⁻¹ | 1.01e+06 M⁻¹ s⁻¹ |  | 0.77 | 0.114 nM |  |  |  | huMN5-3 (antibody, V domains shown, No sheet says in words that huMN5b is huMN5-3) VH: QVQLQQSGAELVKPGASLKLSCKASGYTFTSYWMHWVRQAPGQGLEWIGAIHPNSDNTIYYQKFKSRFTITVDKSTSTAYMQLSSLTSEDTAVYYCAIIITPVVPKFDYWGQGTTVTVSS VL: DIVMTQSPDSLAVSLGERATITCKSSHDVGTSLAWYQQKPGQPPKLLIYWASTRESGVPDRFSGSGSGTDFTLTISSLQAEDVAVYYCQQYSSYPLTFGQGTKLEIK
3 | 100 % of parental |  | 6.81e-05 s⁻¹ | 1.31e+06 M⁻¹ s⁻¹ |  | 0.94 |  | 0.05 nM | 0.051 nM |  | parental anti-Mesothelin mouse mAb MN, produced as chimeric full-length IgG1 antibody with human constant regions (antibody, V domains shown, also called VH-MN (parental mouse); parental chimeric antibody) VH: QVQLQQPGAELVKPGASMKLSCKASGYTFTSYWMHWVKQRPGQGLEWIGMIHPNSDNTIYYEKFKSKATLTVDKSSSTAYMQLSSLTSEDSAVYYCAIIITPVVPKFDYWGQGTTLTVSS VL: DIVMTQSHQFMSTSVGDRVSVTCKASHDVGTSVAWYQQKPGQSPKLLIYWASTRHTGVPDRFTGSGSGTDFTLTISNVQSEDLADYFCQQYSSYPLTFGAGTKLELK
4 | 111 % of parental | 0.193 nM | 0.000274 s⁻¹ | 1.42e+06 M⁻¹ s⁻¹ |  | 1.04 |  |  |  | 0.193 nM | huMN3-1 (antibody, V domains shown) VH: QVQLQQSGAELVKPGASMKLSCKASGYTFTSYWMHWVRQAPGQGLEWIGAIHPNSDNTIYYQKFKSRVTLTVDKSISTAYMQLSSLTSEDTAVYYCAIIITPVVPKFDYWGQGTTVTVSS VL: DIQMTQSPSFLSASVGDRVTITCRASHDVGTSLAWYQQKPGQAPKLLIYWASTLQTGVPSRFSGSGSGTEFTLTISSLQPEDFATYYCQQYSSYPLTFGPGTTVDMK
